# According to US10138283 (AMBRX, dated 2018):
# Read-outs that look alike come from different tables or passages of the source. [ ]: non-standard residue; d: D form. Phe(4-Ac) = CC(=O)c1ccc(C[C@H](N)C(=O)O)cc1
# T1: G-CSF receptor on M-NFS60 cells (UniProt P40223 26-837, limits assumed)
# T1 sequence (looked up): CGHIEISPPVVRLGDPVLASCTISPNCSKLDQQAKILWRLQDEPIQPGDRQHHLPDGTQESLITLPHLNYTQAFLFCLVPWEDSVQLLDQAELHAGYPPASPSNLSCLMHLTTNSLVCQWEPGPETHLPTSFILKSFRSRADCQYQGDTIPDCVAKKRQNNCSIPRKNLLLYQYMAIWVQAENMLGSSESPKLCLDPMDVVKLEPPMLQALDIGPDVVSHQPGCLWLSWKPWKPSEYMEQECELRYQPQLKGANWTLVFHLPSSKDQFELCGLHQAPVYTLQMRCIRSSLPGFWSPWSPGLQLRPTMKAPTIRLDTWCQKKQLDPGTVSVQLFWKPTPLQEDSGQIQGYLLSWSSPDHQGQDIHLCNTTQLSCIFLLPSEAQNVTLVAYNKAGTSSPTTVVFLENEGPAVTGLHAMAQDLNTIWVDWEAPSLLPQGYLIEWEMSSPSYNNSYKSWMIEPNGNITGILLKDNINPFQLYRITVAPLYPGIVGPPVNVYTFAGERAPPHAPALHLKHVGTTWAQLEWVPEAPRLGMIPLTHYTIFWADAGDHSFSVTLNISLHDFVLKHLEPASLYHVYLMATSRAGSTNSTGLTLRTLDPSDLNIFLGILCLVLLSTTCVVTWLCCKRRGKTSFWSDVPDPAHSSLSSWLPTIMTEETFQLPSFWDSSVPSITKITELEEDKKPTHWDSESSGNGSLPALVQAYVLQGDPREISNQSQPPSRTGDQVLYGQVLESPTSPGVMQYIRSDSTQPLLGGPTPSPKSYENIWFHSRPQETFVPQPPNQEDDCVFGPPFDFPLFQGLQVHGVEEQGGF
# B1: 20k PEG-bR7 (bG-CSF R7pAF, 20K PEG) (ligand)
# chain: MTPLGPA[Phe(4-Ac)](PEG 20 kDa)SLPQSFLLKCLEQVRKIQADGAELQERLCAAHKLCHPEELMLLRHSLGIPQAPLSSCSSQSLQLTSCLNQLHGGLFLYQGLLQALAGISPELAPTLDTLQLDVTDFATNIWLQMEDLGAAPAVQPTQGAMPTFTSAFQRRAGGVLVASQLHRFLELAYRGLRYLAEP
# B2: wild-type bovine G-CSF (ligand)
# chain: MTPLGPARSLPQSFLLKCLEQVRKIQADGAELQERLCAAHKLCHPEELMLLRHSLGIPQAPLSSCSSQSLQLTSCLNQLHGGLFLYQGLLQALAGISPELAPTLDTLQLDVTDFATNIWLQMEDLGAAPAVQPTQGAMPTFTSAFQRRAGGVLVASQLHRFLELAYRGLRYLAEP
# B3: 20k PEG-bS62 (bG-CSF S62pAF, 20K PEG) (ligand)
# chain: MTPLGPARSLPQSFLLKCLEQVRKIQADGAELQERLCAAHKLCHPEELMLLRHSLGIPQAPL[Phe(4-Ac)](PEG 20 kDa)SCSSQSLQLTSCLNQLHGGLFLYQGLLQALAGISPELAPTLDTLQLDVTDFATNIWLQMEDLGAAPAVQPTQGAMPTFTSAFQRRAGGVLVASQLHRFLELAYRGLRYLAEP
# B4: 20k PEG-bL3 (bG-CSF L3pAF, 20K PEG) (ligand)
# chain: TP[Phe(4-Ac)](PEG 20 kDa)GPARSLPQSFLLKCLEQVRKIQADGAELQERLCAAHKLCHPEELMLLRHSLGIPQAPLSSCSSQSLQLTSCLNQLHGGLFLYQGLLQALAGISPELAPTLDTLQLDVTDFATNIWLQMEDLGAAPAVQPTQGAMPTFTSAFQRRAGGVLVASQLHRFLELAYRGLRYLAEP
# modifications: not fully specified (N-terminus)
# B5: bG-CSF T133pAF-20K PEG (ligand)
# chain: MTPLGPARSLPQSFLLKCLEQVRKIQADGAELQERLCAAHKLCHPEELMLLRHSLGIPQAPLSSCSSQSLQLTSCLNQLHGGLFLYQGLLQALAGISPELAPTLDTLQLDVTDFATNIWLQMEDLGAAPAVQP[Phe(4-Ac)](PEG 20 kDa (hydroxylamine/oxyamino PEG))QGAMPTFTSAFQRRAGGVLVASQLHRFLELAYRGLRYLAEP
# B6: 20k PEG-bR166 (bG-CSF R166pAF, 20K PEG) (ligand)
# chain: MTPLGPARSLPQSFLLKCLEQVRKIQADGAELQERLCAAHKLCHPEELMLLRHSLGIPQAPLSSCSSQSLQLTSCLNQLHGGLFLYQGLLQALAGISPELAPTLDTLQLDVTDFATNIWLQMEDLGAAPAVQPTQGAMPTFTSAFQRRAGGVLVASQLHRFLELAY[Phe(4-Ac)](PEG 20 kDa)GLRYLAEP
# What was measured:
# Assay in all cases: cell-based or functional assay
# [1] = target: T1, G-CSF receptor on M-NFS60 cells
# [2] = target: T1, G-CSF receptor on M-NFS60 cells; remark: listed apart in the source
# [3] = target: T1, G-CSF receptor on M-NFS60 cells; remark: listed apart in the source
# [4] = target: T1, G-CSF receptor on M-NFS60 cells; remark: listed apart in the source
# [5] = target: T1, G-CSF receptor on M-NFS60 cells; remark: listed apart in the source
molecule,measurement,setting,value
Neupogen (filgrastim) (from UniProt P09919 31-204) (ligand),"M-NFS60 proliferation assay, Avg EC50 [ng/ml]",[1],0.025 ng/mL
same,"M-NFS60 proliferation assay, Fold Diff EC50 [X]",[1],1 fold
Neulasta (pegfilgrastim) (from UniProt P09919 31-204) (ligand),"M-NFS60 proliferation assay, Avg EC50 [ng/ml]",[1],0.077 ng/mL
same,"M-NFS60 proliferation assay, Fold Diff EC50 [X]",[1],3.2 fold
B1,"M-NFS60 proliferation assay, Avg EC50 Values",[2],0.348 ng/mL
B2,"M-NFS60 proliferation assay, Avg EC50 [ng/ml]",[3],0.053 ng/mL
same,"M-NFS60 proliferation assay, Fold Diff EC50 [X]",[4],1 fold
B3,"M-NFS60 proliferation assay, Avg EC50 Values",[2],0.15 ng/mL
B4,"M-NFS60 proliferation assay, Avg EC50 Values",[5],0.477 ng/mL
B5,"M-NFS60 proliferation assay, Avg EC50 [ng/ml] (batch NK2)",[3],0.27 ng/mL
same,"M-NFS60 proliferation assay, Fold Diff EC50 [X] vs. WT bG-CSF (batch NK2)",[4],5.1 fold
same,"M-NFS60 proliferation assay, Avg EC50 Values (batch NK1)",[2],0.258 ng/mL
B6,"M-NFS60 proliferation assay, Avg EC50 Values",[2],0.363 ng/mL
